Measured values reported in IntAct's records for PubMed 24291004.

B1: Glucocorticoid receptor (Homo sapiens), P04150 (parent)
chain: MDSKESLTPGREENPSSVLAQERGDVMDFYKTLRGGATVKVSASSPSLAVASQSDSKQRRLLVDFPKGSVSNAQQPDLSKAVSLSMGLYMGETETKVMGNDLGFPQQGQISLSSGETDLKLLEESIANLNRSTSVPENPKSSASTAVSAAPTEKEFPKTHSDVSSEQQHLKGQTGTNGGNVKLYTTDQSTFDILQDLEFSSGSPGKETNESPWRSDLLIDENCLLSPLAGEDDSFLLEGNSNEDCKPLILPDTKPKIKDNGDLVLSSPSNVTLPQVKTEKEDFIELCTPGVIKQEKLGTVYCQASFPGANIIGNKMSAISVHGVSTSGGQMYHYDMNTASLSQQQDQKPIFNVIPPIPVGSENWNRCQGSGDDNLTSLGTLNFPGRTVFSNGYSSPSMRPDVSSPPSSSSTATTGPPPKLCLVCSDEASGCHYGVLTCGSCKVFFKRAVEGQHNYLCAGRNDCIIDKIRRKNCPACRYRKCLQAGMNLEARKTKKKIKGIQQATTGVSQETSENPGNKTIVPATLPQLTPTLVSLLEVIEPEVLYAGYDSSVPDSTWRIMTTLNMLGGRQVIAAVKWAKAIPGFRNLHLDDQMTLLQYSWMFLMAFALGWRSYRQSSANLLCFAPDLIINEQRMTLPCMYDQCKHMLYVSSELHRLQVSYEEYLCMKTLLLLSSVPKDGLKSQELFDEIRMTYIKELGKAIVKREGNSSQNWQRFYQLTKLLDSMHEVVENLLNYCFQTFLDKTMSIEFPEMLAEIITNQIPKYSNGNIKKLLFHQK

Variants of: B1
Settings: with akt1_human AKT1, P31749
Sequence of akt1_human AKT1, P31749 (P31749 whole entry): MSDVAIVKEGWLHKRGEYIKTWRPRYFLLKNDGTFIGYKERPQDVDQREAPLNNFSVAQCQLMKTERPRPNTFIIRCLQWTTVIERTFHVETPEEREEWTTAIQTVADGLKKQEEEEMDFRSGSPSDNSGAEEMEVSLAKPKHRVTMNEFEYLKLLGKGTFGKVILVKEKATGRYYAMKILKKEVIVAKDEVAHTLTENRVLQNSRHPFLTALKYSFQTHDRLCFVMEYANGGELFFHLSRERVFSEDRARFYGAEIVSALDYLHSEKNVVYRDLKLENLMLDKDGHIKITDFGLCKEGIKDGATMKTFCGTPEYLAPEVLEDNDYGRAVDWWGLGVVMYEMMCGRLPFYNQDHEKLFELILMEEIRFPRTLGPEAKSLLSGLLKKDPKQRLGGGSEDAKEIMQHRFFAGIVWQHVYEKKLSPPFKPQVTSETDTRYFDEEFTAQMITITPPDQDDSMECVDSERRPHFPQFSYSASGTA

Variant | effect of a mutation on the interaction
S134A | disrupting interaction
